Assay: soluble on expression in E. coli; label from the status in PepcDB or PDB records

For “MFNYERPKHFIQSQNPCGSRLQPPGPETSSFSSQTKQSSIIIQPRQCTEQRFSASSTLSSHITMSSSAFPASPQQHAGSNPGQRVTTTYNQSPASFLSSILPSQPDYNSSKIPSAMDSNYQQSSAGQPINAKPSQTANAKPIPRTPDHEIQGSKEALIQDLERKLKCKDTLLHNGNQRLTYEEKMARRLLGPQNAAAVFQAQDDSGAQDSQQHNSEHARLQVPTSQVRSRSTSRGDVNDQDAIQEKFYPPRFIQVPENMSIDEGRFCRMDFKVSGLPAPDVSWYLNGRTVQSDDLHKMIVSEKGLHSLIFEVVRASDAGAYACVAKNRAGEATFTVQLDVLAKEHKRAPMFIYKPQSKKVLEGDSVKLECQISAIPPPKLFWKRNNEMVQFNTDRISLYQDNTGRVTLLIKDVNKKDAGWYTVSAVNEAGVTTCNTRLDVTARPNQTLPAPKQLRVRPTFSKYLALNGKGLNVKQAFNPEGEFQRLAAQSGLYESEEL”, which “soluble on expression in E. coli” value is on record?
The value was “soluble”.

With “MFPEQQKEEFVSVWVRDPRIQKEDFWHSYIDYEICIHTNSMCFTMKTSCVRRRYREFVWLRQRLQSNALLVQLPELPSKNLFFNMNNRQHVDQRRQGLEDFLRKVLQNALLLSDSSLHLFLQSHLNSEDIEACVSGQTKYSVEEAIHKFALMNRRFPEEEEEGKKDADVEYDSESSSSGLGHSSDDSSSHGCKTSPALQES” as the sequence, how does the “soluble on expression in E. coli” value read?
Its value is “soluble”.

With “MFPFSPADVPTLSYFDEYRGRRVQCHFCFQEVDGSTLLNHFKDDLRVFRYPSNSCYGIAATGDALRAHLRRLHFYSRPPAVRGFDIEQRRIRSQLKFDEHEHDPDWDMEDVQQENRSKEAPVEAVNSQDATSPAEKVSKIKEDISTSSSRVDPMYSDEDSEDETSDADSSDDENRESEEEEDEY” as the sequence, how does the “soluble on expression in E. coli” value read?
The value was “not soluble”.

Which “soluble on expression in E. coli” value does the source give for “MFPQTTMDHILHPTPREGYYVVELNRSVWVVPNYYINLTPIGTGAYGTVCAAECTRSGTRVAIKKFNRPFQSIIHARRTYRELRLLRCMCHENIIDLLDVFTPNENVNDIEDVYFVSMLMGADLSNILKIQRLNDDHIQFLVYQILRGLKYIHSADIIHRDLKPSNIAVNEDCELKILDFGLARQTDSEMTGYVATRWYRAPEIMLNWMHYTQTVDVWSVGCILAELITGKTLFPGSDHIDQLTRIMSVTGTPDEEFLKKISSEEARNYIRNLPKMTRRDFKRLFAQATPQAIDLLEKMLHLDPDRRPTAKEAMEHEYLAAYHDETDEPIAEEMDLNDDVRADTIDEWKKIIWEEISDFQKNVAFADEEEDEEKMES” here?
The value was “not soluble”.

Which “soluble on expression in E. coli” value does the source give for “MFPSSEVEAKRTTLNLELESNTDRLLQEKDDLLPQSVTNSSDEGTPFAQVEGASDDNTAEQDSDKPGASVADADTKPVDPEWKTITVASGDTLSTVFTKAGLSTSAMHDMLTSSKDAKRFTHLKVGQEVKLKLDPKGELQALRVKQSELETIGLDKTDKGYSFKREKAQIDLHTAYAHGRITSSLFVAGRNAGLPYNLVTSLSNIFGYDIDFALDLREGDEFDVIYEQHKVNGKQVATGNILAARFVNRGKTYTAVRYTNKQGNTSYYRADGSSMRKAFIRTPVDFARISSRFSLGRRHPILNKIRAHKGVDYAAPIGTPIKATGDGKILEAGRKGGYGNAVVIQHGQRYRTIYGHMSRFAKGIRAGTSVKQGQIIGYVGMTGLATGPHLHYEFQINGRHVDPLSAKLPMADPLGGADRKRFMAQTQPMIARMDQEKKTLLALNKQR” here?
Its value is “not soluble”.

With “MFQAINASGSGLTTARKWMQVTSNNIVNANTPAAPGADLYERRSVVLESNNSFASMLDGAPTNGVKIKSIEADKTENLVYDPTHPHANEEGYVRYPNIDVTAEMTNVMVAQKMYEANTSVLNANKKMLDKDLEIGRG” as the sequence, how does the “soluble on expression in E. coli” value read?
Its value is “not soluble”.

With “MFRMPIVTMERVDSFSAAHRLHSEKLSDAENKETFGKCNNSNGHGHNYVWKVKLRGEVDPTSGMVYDLAKLKKEMSLVLDTVDHRNLDKDVEFFKTTVSTSENVAIYMFEKLKSVMSNPSVLYKVTIEETPKNIFTYKGC” as the sequence, how does the “soluble on expression in E. coli” value read?
Its value is “not soluble”.

With “MFSQAQFNVTMAEEDRWKQWYPNMEMIVNNKGPKLIFPELNFNITGLEEKSRYVVLLSIEKYDNIRYGYRNGKWGPSKVRHATKKEQEIKYFLHPDGTKLGKELMKETIKFDTVRITNHKKFMDKDNVFFVETMHKYVPVLTVKNITNVESANHSMRMEVAQFFPVTVYNQESIGNWKSKFHKNSTYGNRLDGGNKRKNTDSSEERTSKRSKNETEIAVSDILQVASQSENYNESTNSGRLQNEISSSIHQFPSTSYQNQYPHAYPTVNTPPIYVQQFTALFDEIHNQFDPKTKQNRVAKNVQYLSSVPQFAINQKENIHQNAPDYPVSQFPNQYPYGSYPYYYPYFQSSQQFPHLNYSMNNSIYSDSSFQSSFSAENSYFDENGNPIHYPYYSSN” as the sequence, how does the “soluble on expression in E. coli” value read?
The value was “not soluble”.

Which “soluble on expression in E. coli” value does the source give for “MFSYTDTILSIMQRIEVYNEIFKAISKEVQEYGCNQAAHRRGRDTYMFCRNNVNRFFTEEMMFRKNLEPYYDKEATKILLEGLDTYKEGVFFWLEALSESCQVTDELKYQLGIRQKESSYLLINQACKEACEGIQSAHSVHKM” here?
Its value is “not soluble”.

With “MFVAEHEVEIRYAETDQMGVVYHSNYLVWLELGRTKLIQDLGFSYVEMEKEGIISPVLDLQISYRKAMRYGEKASVKTWVDTVSPLRVVYGYEIYNGDGELCITASTTNICAKKEGFRPVSFKKLYPEWYAKYEEIKKK” as the sequence, how does the “soluble on expression in E. coli” value read?
Its value is “not soluble”.

Which “soluble on expression in E. coli” value does the source give for “MFVIGIPTLNEADNISRLVKQIDEYAVNLGKEIIIINSDSKSTDGTPQIFLETKTYNTKVSIVSEAKGKGYNVRNIFEYAINHVPNFSGLILIDGDVVSMKKMWLEKMFIAIESGNDLIIPNYARKSFEGNATNHFIYPMLVKIFKRDMPYQCISGDFGFSRGLIKDLTLKCNWHKYTLGYGIDIFLTLTAILKSYKIKEIDLQSKIHKKSFEKIEKIFLEVSQSFFETINDNSLNQDKLRLNINFESHSRQFIKSSDILSSNDIENLKLRALFLLQEEKQYLHGLSEVEWDGILSNTINNIYRYSSEEHSLYLLPLYLLRVYNYLKYN” here?
Its value is “not soluble”.

For “MFYEKIQTPAYILEEDKLRKNCELLASVGEKSGAKVLLALKGFAFSGAMKIVGEYLKGCTCSGLWEAKFAKEYMDKEIHTYSPAFKEDEIGEIASLSHHIVFNSLAQFHKFQAKTQKNSLGLRCNVEFSLAPKELYNPCGRYSRLGIRAKDFENVDLSTIEGLHFHALCEESAGALEAVLKVFEEKFGKWIGQMKWVNFGGGHHITKKGYDVEKLIALCKNFSDKYGVQVYLEPGEAVGWQTGNLVASVVDIIENEKQIAILDTSSEAHMPDTIIMPYTSEVLNARILATRENEKISDLKESEFSYLLTGNTCLAGDVMGEYAFDKKLKIGDKIVFLDQIHYTIVKNTTFNGIRLPNLMLLNAKNELQMIREFSYKDYSLRN”, which “soluble on expression in E. coli” value is on record?
Its value is “not soluble”.

With “MFYLGIDAGGTKTSFMLINHLGEVLSTYTSGTCHIHQVGFDGFRKGIQEGIDKICSEINICRDDLSYSFLGLPAYGENESEKLKMNSIIAEILGENKFSCGNDVEVALAGSLAGQPGICIILGTGAIASGITNDLKTARTSGWGYICGDEGSGYWIAKKGVEIFGKQSDHRLERTALYDIFKNELKLENDFDLIFLIKDKYKQDRTKVANLAMLVYKAALKGDKYALDIYRQAAKECLLMVNGLTNQLEFTGVLNISYSGSVFNSKEFILDPLRNYLQDNYTAFNLTAPILPPIKGAALNALKLHKGEIPEGVVHNLAKEPKEILVLEHHHHHH” as the sequence, how does the “soluble on expression in E. coli” value read?
Its value is “not soluble”.

With “MFYTTDTNQHGLPHDPFKAIVAPRPIGWIGSKGREGVLNLSPYSFFNAISDRPKLVMFSSSGRKDSLRNVEETGVFTANLVSRHLVDRMNASSAPVAYDVDEFALAGLTAVDGRVVDAPFVREALAVLECRATQIQQLTDIEGKPTDSWMVIGQVMAIHIGETIIRDGRIDMGLARPVARMGYMDYCDGGSDVFQLQRPSAAPSV” as the sequence, how does the “soluble on expression in E. coli” value read?
Its value is “soluble”.

Which “soluble on expression in E. coli” value does the source give for “MGANGASGDHKQLKEIRIGIQQSLSPLLIAKEKGWFEDAFEKEGIKVKWVEFQSGPPQFEGLAADKLDFSQVGNSPVIAGQAAGIDFKEIGLSQDGLKANGILVNQNSGIQDVKGLKGKKIAVAKGSSGFDFLYKALDQVGLSANDVTIIQLQPDEAASAFENGSVDAWSIWEPYLSLETMKHGAKILVNGESTDLYSPGFTLVRTKFSEEHPDEVVRFLKVFNKAVVWQKEHLDEAADLYSDIKDLDKKVVENVLKNTEPLNEIISDDIVKAQQETADFQFRTKAIDKKIDVKDVVDNTFIKKALEEHSSGGDQLEHHHHHH” here?
The value was “soluble”.

With “MGCVGAGADAEGREARKVNKQIEEQLAKDKQVMRATHRLLLLGAGESGKSTIVKQMRILHINGFNEAEKREKITDIRRNVRDAMQVILRAMDEIVPKVSLDDPSTAISRDYILRITNDPEDNYPSEFYDHILTCWKDKGVMACYERSSEYQLIDCAQYFLDKVDVVRQNNYDPSEQDILRCRVMTTGIFETKFEVDKVRFHMFDVGGQRDERRKWIQCFNDVTAIIFVCASSSYNLVLWEDNTQNRLRESLALFKNIWNNRWLKTISVILFLNKQDLLSEKIKAKRYLLESFFPEFEGYNLPNDAVFDNQEDKDVVRAKYFIRGEFLRISTANSDGRHHCYPHFTCAVDTENIRRVFNDCRDIIQRIHLRQYELL” as the sequence, how does the “soluble on expression in E. coli” value read?
Its value is “not soluble”.

For “MGDEFRPSHEERSKMYKSNVRDQNEMRRKRREDEVQIRKNRRDEKFERNRQITVQRSLSHEETSELLKSVADGLQSMQETTIHEALTVLHENLNNTVWTIHVLVKVQILHKLSDVYCNRVISQTTRLLISRTLLKISGIDEVKYERYSSDDRCIQSLVFNISTYGSSEDILCDTFQSIACFIIRSITYRNLALDCAIVSELIDASTINMSIILHRSLMWLVFLFCEKLDRCSPHVDEIAPLLEIISNGIQSTDAMVQTDAASSCASLAEWPPIYHYMSDLKLCSKLVANLRNDKGNARPKVKAGINSIIQATGYFTEEMIDAGLLEVLKGFVNVSYMSQEVCFIISNICVEGEQTIDKLISSGVLREVARVMEASEYRSRREAAFVICHCCASANQKHLEYVVELGMLSAFTDLLTCMDVSLVSYILDAIYLLLQFGEMRLLPDNSNPVAIKLEEIGCREKLEFLCESQSVDIHARAYTIIDRFYVDDDAPLNDDPFAGYQRNNIDDTIEKMIREPIMDQPFSF”, which “soluble on expression in E. coli” value is on record?
Its value is “not soluble”.

For “MGDGISETIDAFHRGRFHIIQPKGRGHRAGMDAMLLASLVADDRACRIADLGAGAGAAGMAVAARLEKAEVTLYERSQEMAEFARRSLELPDNAAFSARIEVLEADVTLRAKARVEAGLPDEHFHHVIMNPPYNDAGDRRTPDALKAEAHAMTEGLFEDWIRTASAIMVSGGQLSLISRPQSVAEIIAACGSRFGGLEITLIHPRPGEDAVRMLVTAIKGSRARLTFRAPLIMHET”, which “soluble on expression in E. coli” value is on record?
Its value is “soluble”.

Which “soluble on expression in E. coli” value does the source give for “MGEETINSTQNKTRTKTTRPKAVYLWTVSDVLKWYRRHCGEYTQYEQLFAQHDITGRALLRITDSSLQRMGVTDNRDREAIWREIVKQRLKTDIMEIRDMERLNIY” here?
Its value is “soluble”.

With “MGEGTRGEAFKKIREGYKVHIFDESYVSYINKGKGWMKVGGGIKVNPKRKRFAVVGGITISKEGITFSYSTYKKPSLNSKDIILYLRKVIKDEKTVIVMDNARIHGNEVREFLEENGVEFVYLPPYSPDKSPAEGPWAVLKKRLYSKIYTDFETLMWDATRFLRSISKRVNDLTYSVKRCGEPLDVNTE” as the sequence, how does the “soluble on expression in E. coli” value read?
The value was “soluble”.

Which “soluble on expression in E. coli” value does the source give for “MGEPFGGPLMGRLVSLLPSATDLIFELGLGEQLLGVSHCCDHPGAASLPVLTRSIIGSDLPQAEIDRAVSEAVRAGRALYTVDGPLLDRLRPDLVVTQGVCEVCAVTPGTVAEAVRFLPGCLPAEQVLSLEGKTFAGILADLRALARAAGVRERGEALAAESERRWNAIRPVGVQVPEPPRVLTLEWVDPPFYGGHWVPEQVAQAGGKDVLGHAGRDSGRTSWEDVVQLDPDVIVVMCCGYGLSDNAEFARQVLSHPELRAVRAGQVWGVDANAHFSRPSLGVVRGAEVLAALLRGEESAGESVRVRAELEHHHHHH” here?
Its value is “not soluble”.

— the DeepSol protein solubility set
